Assay [1] concerns the target T1, CD33 (Sino Biological, Cat #12238-H08H) (UniProt P20138 18-259). The experiment in a line: BLI, IgG captured on anti-human Fc sensor, pH 7.4 and pH 5.4. For orientation: Biolayer interferometry detects binding as a change in optical thickness at a sensor tip.
The target in assay [2] is T1, CD33 (Sino Biological, Cat #12238-H08H). The experiment in a line: BLI, IgG captured on anti-human Fc sensor, 50 nM CD33, pH 7.4 vs pH 5.0. The text has this:
Multiple CD33-binding monoclonal antibodies have been described in the literature and can be used as a template for engineering pH-dependent binding (Hamann P R et al (2002) “Gemtuzumab ozogamicin, a potent and selective anti-CD33 antibody-calicheamicin conjugate for treatment of acute myeloid leukemia.” Bioconjug Chem 13(1):47-58). Gemtuzumab (Heavy chain SEQ ID NO: 1, Light chain SEQ ID NO: 2) was selected as a CD33-binding monoclonal antibody for pH engineering via histidine scanning. Briefly, CDRs in the heavy chain were identified using the methods described by Kabat et al (Kabat et al. (1992) Sequences of Proteins of Immunological Interest, DIANE publishing) and IMGT (Lefranc M P (1999) “The IMGT unique numbering for Immunoglobulins, T cell receptors and Ig-like domains” The Immunologist 7, 132-136), and for each CDR, residues falling under either or both Kabat and IMGT CDR definitions were called as CDR residues. To generate pH-dependent sequence variants, individual amino acid residues within the heavy chain CDRs were systematically substituted with a histidine, one at a time (MYT0482-MYT0517). In cases where the starting CDR residue was a histidine, it was mutated to an alanine. Antibody variants with only one histidine or alanine mutation in a heavy chain CDR were generated by co-transfection of Expi293 cells with a) one heavy chain sequence variant, and b) the corresponding starting ABPC light chain using methods known to the art. After allowing for four days of protein expression, cell culture supernatants were collected, quantified by SDS-PAGE analysis, (FIG. 1), and the pH dependence of the variant was evaluated using biolayer interferometry (BLI) on an Octet RED 384 instrument. Briefly, cell culture supernatants were normalized to an antibody expression level of 25 μg/mL, and captured on an anti-human Fc sensor (Forte Bio). A baseline was established using 1×PBST (50 mM Potassium Phosphate Buffer+150 mM NaCl+0.05% Tween 20) pH 7.4, and the sensor was associated with 50 nM of CD33 (Sino Biological, Cat #12238) in 1×PBST pH 7.4 for 120 sec to generate an association curve. In the dissociation phase, the antibody-antigen complex on the sensor was exposed to 1×PBST pH 7.4 for 300-600 sec. Baseline, association, and dissociation were repeated using 1×MES (100 mM MES Buffer+150 mM NaCl+0.05% Tween 20) pH 5.0 throughout in a separate condition.

Residue numbers refer to the chain shown, from its start. Names may count otherwise.

T1 sequence (P20138 18-259 limits assumed): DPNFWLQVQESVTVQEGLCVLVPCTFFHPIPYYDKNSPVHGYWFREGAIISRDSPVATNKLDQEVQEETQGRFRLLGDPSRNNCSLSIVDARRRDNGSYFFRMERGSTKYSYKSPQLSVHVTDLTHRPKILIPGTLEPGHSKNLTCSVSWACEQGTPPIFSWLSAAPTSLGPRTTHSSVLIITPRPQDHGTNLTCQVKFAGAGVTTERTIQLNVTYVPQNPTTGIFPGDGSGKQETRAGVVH

B1: MYT1342 (antibody, V domains shown)
VH: QVQLVQSGAEVKKPGASVKVSCKASGYTFTNYHINWVRQAPGQGLEWIGWIYPGDGSTKYNEKFKAKATLTADTSTSTAYMELRSLRSDDTAVYYCASGYEDAMDYWGQGTTVTVSS
VL: DIQMTQSPSSLSASVGDRVTINCKASQDINSYLSWFQQKPGKAPKTLIYRANRLVDGVPSRFSGSGSGQDYTLTISSLQPEDFATYYCLQYDEFPLTFGGGTKVEIK
notes: IgG; vadastuximab VH variant #8 (D33H)
Regarding B1, the binding result in assay [1] is “no binding (tested: 50 nM CD33)”.

B2: MYT1344 (antibody, V domains shown)
VH: B1 VH with H33D, N35H
VL: B1 VL
notes: IgG; vadastuximab VH variant #10 (N35H)
With B2, the binding result in assay [1] is “no binding (tested: 50 nM CD33)”.

B3: MYT2633 (antibody, V domains shown)
VH: QVQLQQPGAEVVKPGASVKMSCKASGYTFTSYYIHWIKQTPGQGLEWVGVIYPGNDDISYNQKFQGKATLTADKSSTTAYMQLSSLTSEDSAVYYCAREVRLRYFDVWGQGTTVTVSS
VL: EIVLTQSPGSLAVSPGERVTMSCKSSQSVFFSSSQKNYLHWYQQIPGQSPRLLIYWASTRESGVPDRFTGSGSGTDFTLTISSVQPEDLAIYYCHQYLSSRTFGQGTKLEIK
notes: IgG; IMGN779 VL variant #17 (A40H)
Turning to B3, the binding result in assay [1] is “no binding (tested: 50 nM CD33)”.

B4: MYT0483 (antibody, V domains shown)
VH: EVQLVQSGAEVKKPGSSVKVSCKASGHTITDSNIHWVRQAPGQSLEWIGYIYPYNGGTDYNQKFKNRATLTVDNPTNTAYMELSSLRSEDTDFYYCVNGNPWLAYWGQGTLVTVSS
VL: DIQLTQSPSTLSASVGDRVTITCRASESLDNYGIRFLTWFQQKPGKAPKLLMYAASNQGSGVPSRFSGSGSGTEFTLTISSLQPDDFATYYCQQTKEVPWSFGQGTKVEVK
notes: IgG; gemtuzumab VH variant #2 (Y27H)
Consider B4, for which the binding result in assay [2] is listed as “binds”.

B5: MYT0487 (antibody, V domains shown)
VH: B4 VH with H27Y, D31H
VL: B4 VL
notes: IgG; gemtuzumab VH variant #6 (D31H)
B5: in assay [2], the binding result is “binds”.

B6: MYT0486 (antibody, V domains shown)
VH: B4 VH with H27Y, T30H
VL: B4 VL
notes: IgG; gemtuzumab VH variant #5 (T30H)
Regarding B6, the binding result in assay [2] was “binds”.

B7: MYT0484 (antibody, V domains shown)
VH: B4 VH with H27Y, T28H
VL: B4 VL
notes: IgG; gemtuzumab VH variant #3 (T28H)
With B7, in assay [2], the binding result is given as “binds”.

B8: MYT0504 (antibody, V domains shown)
VH: B4 VH with H27Y, Q62H
VL: B4 VL
notes: IgG; gemtuzumab VH variant #23 (Q62H)
Consider B8, for which the binding result in assay [2] is reported as “binds”.

B9: MYT0496 (antibody, V domains shown)
VH: B4 VH with H27Y, Y54H
VL: B4 VL
notes: IgG; gemtuzumab VH variant #15 (Y54H)
Consider B9, for which, in assay [2], the binding result is “binds”.

B10: MYT0512 (antibody, V domains shown)
VH: B4 VH with H27Y, N100H
VL: B4 VL
notes: IgG; gemtuzumab VH variant #31 (N100H)
For B10, the binding result in assay [2] is reported as “binds”.

B11: MYT0507 (antibody, V domains shown)
VH: B4 VH with H27Y, K65H
VL: B4 VL
notes: IgG; gemtuzumab VH variant #26 (K65H)
On to B11, for which, in assay [2], the binding result was “binds”.

B12: MYT0490 (antibody, V domains shown)
VH: B4 VH with H27Y, I34H
VL: B4 VL
notes: IgG; gemtuzumab VH variant #9 (I34H)
On to B12, for which, in assay [2], the binding result is on record as “binds”.

B13: MYT0489 (antibody, V domains shown)
VH: B4 VH with H27Y, N33H
VL: B4 VL
notes: IgG; gemtuzumab VH variant #8 (N33H)
B13: the binding result in assay [2] is listed as “binds”.

B14: MYT0492 (antibody, V domains shown)
VH: B4 VH with H27Y, Y50H
VL: B4 VL
notes: IgG; gemtuzumab VH variant #11 (Y50H)
Regarding B14, in assay [2], the binding result was “binds”.

B15: MYT0505 (antibody, V domains shown)
VH: B4 VH with H27Y, K63H
VL: B4 VL
notes: IgG; gemtuzumab VH variant #24 (K63H)
For the molecule B15, the binding result in assay [2] was “binds”.

B16: MYT0508 (antibody, V domains shown)
VH: B4 VH with H27Y, N66H
VL: B4 VL
notes: IgG; gemtuzumab VH variant #27 (N66H)
B16: the binding result in assay [2] is reported as “binds”.

B17: MYT0499 (antibody, V domains shown)
VH: B4 VH with H27Y, G57H
VL: B4 VL
notes: IgG; gemtuzumab VH variant #18 (G57H)
On to B17, for which the binding result in assay [2] is given as “binds”.

B18: MYT0500 (antibody, V domains shown)
VH: B4 VH with H27Y, T58H
VL: B4 VL
notes: IgG; gemtuzumab VH variant #19 (T58H)
As for B18, in assay [2], the binding result is “binds”.

B19: MYT0510 (antibody, V domains shown)
VH: B4 VH with H27Y, N98H
VL: B4 VL
notes: IgG; gemtuzumab VH variant #29 (N98H)
For the molecule B19, the binding result in assay [2] is given as “binds”.

B20: MYT0515 (antibody, V domains shown)
VH: B4 VH with H27Y, L103H
VL: B4 VL
notes: IgG; gemtuzumab VH variant #34 (L103H)
Take B20: in assay [2], the binding result is “binds”.

B21: MYT0488 (antibody, V domains shown)
VH: B4 VH with H27Y, S32H
VL: B4 VL
notes: IgG; gemtuzumab VH variant #7 (S32H)
B21: in assay [2], the binding result is on record as “binds”.

B22: MYT0497 (antibody, V domains shown)
VH: B4 VH with H27Y, N55H
VL: B4 VL
notes: IgG; gemtuzumab VH variant #16 (N55H)
Turning to B22, the binding result in assay [2] is given as “binds”.

B23: MYT0503 (antibody, V domains shown)
VH: B4 VH with H27Y, N61H
VL: B4 VL
notes: IgG; gemtuzumab VH variant #22 (N61H)
In the case of B23, in assay [2], the binding result is given as “binds”.

B24: MYT0506 (antibody, V domains shown)
VH: B4 VH with H27Y, F64H
VL: B4 VL
notes: IgG; gemtuzumab VH variant #25 (F64H)
Take B24: the binding result in assay [2] is recorded as “binds”.

B25: MYT0494 (antibody, V domains shown)
VH: B4 VH with H27Y, Y52H
VL: B4 VL
notes: IgG; gemtuzumab VH variant #13 (Y52H)
With B25, the binding result in assay [2] was “binds”.

B26: MYT0514 (antibody, V domains shown)
VH: B4 VH with H27Y, W102H
VL: B4 VL
notes: IgG; gemtuzumab VH variant #33 (W102H)
For B26, the binding result in assay [2] is recorded as “binds”.

B27: MYT0517 (antibody, V domains shown)
VH: B4 VH with H27Y, Y105H
VL: B4 VL
notes: IgG; gemtuzumab VH variant #36 (Y105H)
As to B27, in assay [2], the binding result is given as “binds”.

B28: MYT0502 (antibody, V domains shown)
VH: B4 VH with H27Y, Y60H
VL: B4 VL
notes: IgG; gemtuzumab VH variant #21 (Y60H)
Consider B28, for which the binding result in assay [2] was “binds”.

B29: MYT0498 (antibody, V domains shown)
VH: B4 VH with H27Y, G56H
VL: B4 VL
notes: IgG; gemtuzumab VH variant #17 (G56H)
In the case of B29, the binding result in assay [2] is recorded as “binds”.

B30: MYT0485 (antibody, V domains shown)
VH: B4 VH with H27Y, I29H
VL: B4 VL
notes: IgG; gemtuzumab VH variant #4 (I29H)
In the case of B30, the binding result in assay [2] is recorded as “binds”.

B31: MYT0516 (antibody, V domains shown)
VH: B4 VH with H27Y, A104H
VL: B4 VL
notes: IgG; gemtuzumab VH variant #35 (A104H)
B31: in assay [2], the binding result was “binds”.

B32: MYT0493 (antibody, V domains shown)
VH: B4 VH with H27Y, I51H
VL: B4 VL
notes: IgG; gemtuzumab VH variant #12 (I51H)
Regarding B32, the binding result in assay [2] is “binds”.

B33: MYT0501 (antibody, V domains shown)
VH: B4 VH with H27Y, D59H
VL: B4 VL
notes: IgG; gemtuzumab VH variant #20 (D59H)
Consider B33, for which the binding result in assay [2] was “binds”.

The values above are taken from US20220324969A1 (MYTHIC THERAPEUTICS, published 2022).
